Consider 61 sequences from the supplement of paper PMC7877785.

± gives the uncertainty stated by the source.

The nature of this data set: self-splicing fitness, log relative to wild type (ln ratio); higher = more splicing; Tetrahymena group I intron in knt gene, E. coli kanamycin selection, DiMSum; sequences stand for … in CUCUCU…GGAGGGAAAAGUUAUCAGGCAUGCACCUGGUAGCUAGUCUUUAAACCAAUAGAUUGCAUCGGUUUAAAAGGCAAGACCGUCAAAUUGCGGGAAAGGGGUCAACAGCCGUUCAGUACCAAGUCUCAGGGGAAACUUUGAGAUGGCCUUGCAAAGGGUAUGGUAAUAAGCUGACGGACAUGGUCCUAACCACGCAGCCAAGUCCUAAGUCAACAGAUCUUCUGUUGAUAUGGAUGCAGUUCACAGACUAAAUGUCGGUCGGGGAAGAUGUAUUCUUCUCAUAAGAUAUAGUCGGACCUCUCCUUAAUGGGAGCUAGCGGAUGAAGUGAUGCAACACUGGAGCCGCUGGGAACUAAUUUGUAUGCGAAAGUAUAUUGAUUAGUUUUGGAGUACUCGUGGUCG
In outline:
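The eight P1ex-region nucleotides of an intron in the knt kanamycin-resistance gene on pET-22b(+) were all randomised and the library put into E. coli BL21(DE3). Six replicate transformations were grown overnight at 37°C or 30°C on LB agar with or without 25 μg/mL kanamycin, together with 100 μg/mL carbenicillin, 50 μM IPTG and 0.2% rhamnose. Colonies were pooled and amplicon-sequenced on an Illumina HiSeq 2500. Fitness from DiMSum is the error-weighted combination of wild-type-normalised replicate fold changes, kanamycin over none.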

In the case of UCUAAGCAAUAUUACGCGCG, the “self-splicing fitness (ln)” value was -1.87 ± 0.14 (30 °C) and -1.74 ± 0.18 (37 °C).

As for AGCGAGCAAUAUUACGCCUC, the “self-splicing fitness (ln)” value (30 °C) was -1.82 ± 0.3.

AAUUAGCAAUAUUACGCUAA: the “self-splicing fitness (ln)” value was -2.5 ± 0.28 (30 °C) and -2.27 ± 0.24 (37 °C).

Regarding AACGAGCAAUAUUACGGCCA, the “self-splicing fitness (ln)” value was -3.21 ± 0.18 (30 °C) and -1.37 ± 0.13 (37 °C).

For the sequence AACAAGCAAUAUUACGGAUA, the “self-splicing fitness (ln)” value (30 °C) was -3.95 ± 0.2 and the “self-splicing fitness (ln)” value (37 °C) was -2.18 ± 0.12.

For the sequence ACGGAGCAAUAUUACGCGGA, the “self-splicing fitness (ln)” value was -3.41 ± 0.37 (30 °C) and -1.54 ± 0.26 (37 °C).

As for UUCGAGCAAUAUUACGGUUA, the “self-splicing fitness (ln)” value by setting is: (30 °C) -1.19 ± 0.13; (37 °C) -1.05 ± 0.1.

As to UCCAAGCAAUAUUACGCGCG, the “self-splicing fitness (ln)” value (30 °C) is -2.95 ± 0.17 and the “self-splicing fitness (ln)” value (37 °C) was -1.49 ± 0.23.

For the sequence GGAUAGCAAUAUUACGGCAU, the “self-splicing fitness (ln)” value (30 °C) is -0.507 ± 0.09 and the “self-splicing fitness (ln)” value (37 °C) is 0.598 ± 0.11.

Regarding AUCGAGCAAUAUUACGCUGG, the “self-splicing fitness (ln)” value is, setting by setting: (30 °C) -2.78 ± 0.21; (37 °C) -2.96 ± 0.2.

As for AGCAAGCAAUAUUACGGAAC, the “self-splicing fitness (ln)” value is -3.49 ± 0.43 (30 °C) and -2.04 ± 0.18 (37 °C).

On to GUAUAGCAAUAUUACGCAUC, for which the “self-splicing fitness (ln)” value runs as follows: (30 °C) -2.15 ± 0.17; (37 °C) -0.982 ± 0.13.

Consider GCGAAGCAAUAUUACGGCUU, for which the “self-splicing fitness (ln)” value (30 °C) is -2.39 ± 0.36.

With UAAGAGCAAUAUUACGUAGG, the “self-splicing fitness (ln)” value (30 °C) is -3.24 ± 0.33 and the “self-splicing fitness (ln)” value (37 °C) is -2.56 ± 0.3.

On to CGCAAGCAAUAUUACGCGAC, for which the “self-splicing fitness (ln)” value is, setting by setting: (30 °C) -3.77 ± 0.39; (37 °C) -1.68 ± 0.18.

On to GAGCAGCAAUAUUACGUCUA, for which the “self-splicing fitness (ln)” value came out at 0.0729 ± 0.12 (30 °C) and 0.0653 ± 0.13 (37 °C).

In the case of UUACAGCAAUAUUACGUUAA, the “self-splicing fitness (ln)” value (30 °C) is -1.12 ± 0.11 and the “self-splicing fitness (ln)” value (37 °C) was -0.847 ± 0.085.

With UUGAAGCAAUAUUACGUGGC, the “self-splicing fitness (ln)” value was -3.36 ± 0.2 (30 °C) and -1.66 ± 0.22 (37 °C).

On to CGAUAGCAAUAUUACGUUAG, for which the “self-splicing fitness (ln)” value is -0.734 ± 0.084 (30 °C) and -0.52 ± 0.093 (37 °C).

As to ACAAAGCAAUAUUACGAUCC, the “self-splicing fitness (ln)” value (30 °C) is -1.55 ± 0.071 and the “self-splicing fitness (ln)” value (37 °C) is 0.389 ± 0.1.

For UUGUAGCAAUAUUACGCGCG, the “self-splicing fitness (ln)” value by setting is: (30 °C) -1.25 ± 0.12; (37 °C) -0.356 ± 0.18.

With GAGUAGCAAUAUUACGUUAU, the “self-splicing fitness (ln)” value runs as follows: (30 °C) -2.9 ± 0.23; (37 °C) -2.12 ± 0.21.

Regarding AGCAAGCAAUAUUACGAACC, the “self-splicing fitness (ln)” value by setting is: (30 °C) -0.794 ± 0.12; (37 °C) 0.286 ± 0.2.

On to CUCUAGCAAUAUUACGAGUG, for which the “self-splicing fitness (ln)” value is -1.62 ± 0.14 (30 °C) and -1.09 ± 0.15 (37 °C).

For GCUGAGCAAUAUUACGCGGU, the “self-splicing fitness (ln)” value is, setting by setting: (30 °C) -3.6 ± 0.21; (37 °C) -2.02 ± 0.3.

Consider CCGAAGCAAUAUUACGGUUU, for which the “self-splicing fitness (ln)” value was -4.44 ± 0.25 (30 °C) and -2.23 ± 0.17 (37 °C).

As to CGGUAGCAAUAUUACGAAGG, the “self-splicing fitness (ln)” value (30 °C) is -0.178 ± 0.15 and the “self-splicing fitness (ln)” value (37 °C) came to 0.565 ± 0.16.

Take UCUGAGCAAUAUUACGCGCU: the “self-splicing fitness (ln)” value (30 °C) is -2.53 ± 0.28 and the “self-splicing fitness (ln)” value (37 °C) is -1.59 ± 0.3.

Take GUCUAGCAAUAUUACGAAUA: the “self-splicing fitness (ln)” value reads like this: (30 °C) -1.87 ± 0.17; (37 °C) -0.494 ± 0.14.

Take UUAAAGCAAUAUUACGCCAG: the “self-splicing fitness (ln)” value was 0.134 ± 0.17 (30 °C) and -1.25 ± 0.21 (37 °C).

In the case of GAGCAGCAAUAUUACGGUUA, the “self-splicing fitness (ln)” value was -0.804 ± 0.1 (30 °C) and -0.875 ± 0.1 (37 °C).

Take AACGAGCAAUAUUACGUUAA: the “self-splicing fitness (ln)” value runs as follows: (30 °C) -3.45 ± 0.36; (37 °C) -2.2 ± 0.24.

In the case of UGUCAGCAAUAUUACGCGGG, the “self-splicing fitness (ln)” value (30 °C) is -3.8 ± 0.3 and the “self-splicing fitness (ln)” value (37 °C) is -1.73 ± 0.26.

With AAAAAGCAAUAUUACGCGGU, the “self-splicing fitness (ln)” value runs as follows: (30 °C) -2.38 ± 0.13; (37 °C) -0.538 ± 0.11.

With GCGGAGCAAUAUUACGCUAU, the “self-splicing fitness (ln)” value (30 °C) was -3.16 ± 0.36 and the “self-splicing fitness (ln)” value (37 °C) is -2.53 ± 0.49.

Regarding UGUCAGCAAUAUUACGAUAU, the “self-splicing fitness (ln)” value (30 °C) is -1.6 ± 0.13 and the “self-splicing fitness (ln)” value (37 °C) is -0.448 ± 0.13.

On to CCAUAGCAAUAUUACGAGGG, for which the “self-splicing fitness (ln)” value is -3.56 ± 0.15 (30 °C) and -2.25 ± 0.19 (37 °C).

As to CCGAAGCAAUAUUACGCAUC, the “self-splicing fitness (ln)” value (30 °C) was -4.21 ± 0.34.

On to CUACAGCAAUAUUACGUGGU, for which the “self-splicing fitness (ln)” value (30 °C) was -3.31 ± 0.22 and the “self-splicing fitness (ln)” value (37 °C) was -3.03 ± 0.28.

On to CCGUAGCAAUAUUACGGGAA, for which the “self-splicing fitness (ln)” value (37 °C) is -2.04 ± 0.31.

For UUCAAGCAAUAUUACGGUGU, the “self-splicing fitness (ln)” value (30 °C) is -2.98 ± 0.18 and the “self-splicing fitness (ln)” value (37 °C) was -2.49 ± 0.17.

For the sequence ACCUAGCAAUAUUACGAAUC, the “self-splicing fitness (ln)” value is, setting by setting: (30 °C) -2.94 ± 0.15; (37 °C) -1.07 ± 0.13.

GUCCAGCAAUAUUACGGCGG: the “self-splicing fitness (ln)” value (30 °C) is -4.63 ± 0.42 and the “self-splicing fitness (ln)” value (37 °C) was -1.4 ± 0.29.

Consider CCGUAGCAAUAUUACGGCAA, for which the “self-splicing fitness (ln)” value (30 °C) was -3.49 ± 0.43 and the “self-splicing fitness (ln)” value (37 °C) was -2.42 ± 0.42.

As to UAGAAGCAAUAUUACGGAGG, the “self-splicing fitness (ln)” value by setting is: (30 °C) -3.39 ± 0.3; (37 °C) -0.889 ± 0.27.

UCGUAGCAAUAUUACGCUGG: the “self-splicing fitness (ln)” value runs as follows: (30 °C) -3.09 ± 0.15; (37 °C) -1.88 ± 0.15.

On to GACUAGCAAUAUUACGAUUG, for which the “self-splicing fitness (ln)” value is, setting by setting: (30 °C) -2.2 ± 0.087; (37 °C) -2.14 ± 0.15.

Consider GCUAAGCAAUAUUACGGCUC, for which the “self-splicing fitness (ln)” value was -0.551 ± 0.092 (30 °C) and -0.942 ± 0.098 (37 °C).

In the case of UCCUAGCAAUAUUACGGCCG, the “self-splicing fitness (ln)” value is -4.16 ± 0.42 (30 °C) and -3.12 ± 0.37 (37 °C).

In the case of CGUAAGCAAUAUUACGUUUG, the “self-splicing fitness (ln)” value is, setting by setting: (30 °C) -1.2 ± 0.08; (37 °C) -0.438 ± 0.1.

Regarding CGAUAGCAAUAUUACGUCUC, the “self-splicing fitness (ln)” value was -2.61 ± 0.19 (30 °C) and -2.55 ± 0.32 (37 °C).

Take CACCAGCAAUAUUACGCCAC: the “self-splicing fitness (ln)” value runs as follows: (30 °C) -3.58 ± 0.16; (37 °C) -2.42 ± 0.17.

In the case of AGUCAGCAAUAUUACGGAAG, the “self-splicing fitness (ln)” value (30 °C) was -3.36 ± 0.17 and the “self-splicing fitness (ln)” value (37 °C) was -1.67 ± 0.16.

As for UACAAGCAAUAUUACGCCCG, the “self-splicing fitness (ln)” value (30 °C) turned out to be 0.87 ± 0.18 and the “self-splicing fitness (ln)” value (37 °C) amounted to 0.761 ± 0.23.

Take GCGUAGCAAUAUUACGGUUC: the “self-splicing fitness (ln)” value (30 °C) is -2.26 ± 0.14 and the “self-splicing fitness (ln)” value (37 °C) was -0.643 ± 0.18.

For the sequence ACGCAGCAAUAUUACGACGA, the “self-splicing fitness (ln)” value (30 °C) is -0.25 ± 0.1 and the “self-splicing fitness (ln)” value (37 °C) was determined as 0.113 ± 0.12.

As for AUAAAGCAAUAUUACGAUUC, the “self-splicing fitness (ln)” value (30 °C) is -0.837 ± 0.085 and the “self-splicing fitness (ln)” value (37 °C) is -0.228 ± 0.097.

In the case of GGGGAGCAAUAUUACGACAA, the “self-splicing fitness (ln)” value (30 °C) was -1.55 ± 0.42.

On to AAGUAGCAAUAUUACGUCCU, for which the “self-splicing fitness (ln)” value is, setting by setting: (30 °C) -0.128 ± 0.11; (37 °C) 0.294 ± 0.14.

With AGUCAGCAAUAUUACGGGGA, the “self-splicing fitness (ln)” value was -3.08 ± 0.19 (30 °C) and -1.42 ± 0.18 (37 °C).

As to ACGGAGCAAUAUUACGAUCA, the “self-splicing fitness (ln)” value is, setting by setting: (30 °C) -2.77 ± 0.37; (37 °C) -1.53 ± 0.24.
